Measurements from PMC6138693, “Structural determinants of Rab11 activation by the guanine nucleotide exchange factor SH3BP5” (Nature Communications, 2018).
Values belong to the binder of their own block, whether it stands above or below them.

Assays:
[1] = target: Rab11A K41P (human) (UniProt P62491)
[2] = target: Rab11A L38P (human) (UniProt P62491)
[3] = target: Rab11A S40F (human) (UniProt P62491)
[4] = target: Rab11A K13N (human) (UniProt P62491)
[5] = target: T1, SH3BP5 (31–455), N-terminally truncated (UniProt O60239 31-455); test: HDX-MS; 0.4 µM C-terminally His-tagged Rab11A (1–211) and 0.4 µM SH3BP5 (31–455), with or without 0.2 mg/mL nickelated lipid vesicles; D2O buffer 10 mM HEPES pH 7.5, 200 mM NaCl; 3, 30, 300, 3000 s at room temperature; conditions: both partners purified
T1 construct: also called N-terminally truncated SH3BP5 (31–455); N-terminally truncated variant of SH3BP5; source: E. coli BL21 C41, purified (GSTrap, TEV cleavage, HiTrap Q, SEC); not shown: GST, N-terminal, cleaved
T1 sequence (looked up): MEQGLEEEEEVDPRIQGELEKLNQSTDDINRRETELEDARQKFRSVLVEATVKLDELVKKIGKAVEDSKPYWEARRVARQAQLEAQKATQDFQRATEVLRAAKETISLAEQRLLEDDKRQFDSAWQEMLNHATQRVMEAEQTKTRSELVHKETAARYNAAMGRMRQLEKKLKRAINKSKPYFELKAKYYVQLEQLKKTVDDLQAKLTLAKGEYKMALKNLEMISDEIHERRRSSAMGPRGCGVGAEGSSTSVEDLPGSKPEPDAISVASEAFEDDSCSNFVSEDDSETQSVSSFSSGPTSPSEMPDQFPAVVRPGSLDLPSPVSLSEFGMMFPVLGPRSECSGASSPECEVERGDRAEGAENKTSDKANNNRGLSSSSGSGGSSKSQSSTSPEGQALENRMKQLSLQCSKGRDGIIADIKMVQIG

[6] = target: T2, SH3BP5 (1–265), crystal construct (N-terminal GEF domain of SH3BP5) (UniProt O60239 1-265); test: SEC; SH3BP5 truncation and Rab11(Q70L) mixed at an equimolar amount, 5 min at 4 °C, 20 mM EDTA (pH 7.5) for 1 h at 4 °C, loaded onto Superdex 200 10/300; conditions: both partners purified
T2 construct: A SeMet form made in E. coli B834 was used for phasing; source: E. coli BL21 C41, purified (GSTrap, TEV cleavage, HiTrap Q, SEC); not shown: GST, N-terminal, cleaved
T2 sequence (looked up): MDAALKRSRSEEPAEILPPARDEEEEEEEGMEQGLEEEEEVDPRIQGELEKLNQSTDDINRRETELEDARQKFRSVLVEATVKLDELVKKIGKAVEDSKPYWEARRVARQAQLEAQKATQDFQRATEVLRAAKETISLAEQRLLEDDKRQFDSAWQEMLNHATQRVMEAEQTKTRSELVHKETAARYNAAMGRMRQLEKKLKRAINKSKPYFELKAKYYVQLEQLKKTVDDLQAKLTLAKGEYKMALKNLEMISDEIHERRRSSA

[7] = target: T1, SH3BP5 (31–455), N-terminally truncated; test: HDX-MS; 1.0 µM Rab11(Q70L) and 1.0 µM SH3BP5 (31–455), incubated on ice with 20 µM EDTA for 1 h; D2O buffer 10 mM HEPES pH 7.5, 500 mM NaCl; 3 s at 1 °C and 3, 30, 300 s at room temperature; conditions: both partners purified

Chain of Rab11A K13N (human) (P62491 whole entry K13N, the tested form may be a part): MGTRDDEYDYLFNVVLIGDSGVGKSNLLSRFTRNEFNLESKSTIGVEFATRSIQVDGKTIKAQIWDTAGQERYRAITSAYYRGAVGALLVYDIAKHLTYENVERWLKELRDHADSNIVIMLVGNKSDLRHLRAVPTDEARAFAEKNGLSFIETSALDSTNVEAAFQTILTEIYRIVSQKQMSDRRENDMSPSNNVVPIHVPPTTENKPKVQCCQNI

SH3BP5-mediated GEF activity (Mant-GDP release, kcat/Km), mutant compared with WT Rab11A (fold decrease) [1]: > 100
SH3BP5-mediated GEF activity (Mant-GDP release, kcat/Km), mutant compared with WT Rab11A (fold decrease) [2]: > 100
SH3BP5-mediated GEF activity (Mant-GDP release, kcat/Km), mutant compared with WT Rab11A (fold decrease) [3]: > 100
SH3BP5-mediated GEF activity (Mant-GDP release, kcat/Km), mutant compared with WT Rab11A (fold decrease) [4]: > 100
B1: SH3BP5 (1–455), full-length (natural protein)
chain: MDAALKRSRSEEPAEILPPARDEEEEEEEGMEQGLEEEEEVDPRIQGELEKLNQSTDDINRRETELEDARQKFRSVLVEATVKLDELVKKIGKAVEDSKPYWEARRVARQAQLEAQKATQDFQRATEVLRAAKETISLAEQRLLEDDKRQFDSAWQEMLNHATQRVMEAEQTKTRSELVHKETAARYNAAMGRMRQLEKKLKRAINKSKPYFELKAKYYVQLEQLKKTVDDLQAKLTLAKGEYKMALKNLEMISDEIHERRRSSAMGPRGCGVGAEGSSTSVEDLPGSKPEPDAISVASEAFEDDSCSNFVSEDDSETQSVSSFSSGPTSPSEMPDQFPAVVRPGSLDLPSPVSLSEFGMMFPVLGPRSECSGASSPECEVERGDRAEGAENKTSDKANNNRGLSSSSGSGGSSKSQSSTSPEGQALENRMKQLSLQCSKGRDGIIADIKMVQIG

binding result [5]: binds
B2: WT Rab11A (1–211, C-term his) (natural protein, human, UniProt P62491 1-211, looked up)
chain: MGTRDDEYDYLFKVVLIGDSGVGKSNLLSRFTRNEFNLESKSTIGVEFATRSIQVDGKTIKAQIWDTAGQERYRAITSAYYRGAVGALLVYDIAKHLTYENVERWLKELRDHADSNIVIMLVGNKSDLRHLRAVPTDEARAFAEKNGLSFIETSALDSTNVEAAFQTILTEIYRIVSQKQMSDRRENDMSPSNNVVPIHVPPTTENKPKVQ
notes: Rab11A, residues 1-211, wild type; The limits 1-211 are printed for the HDX-MS experiment; In GEF assays it was loaded with Mant-GDP; also called Rab11A-His6; Rab11a-His6; source: E. coli BL21 C41, purified (GSTrap, TEV cleavage, HiTrap Q, SEC); not shown: GST, N-terminal, cleaved; His6, C-terminal, kept

binding result [6]: binds
binding result [7]: binds
B3: Rab11A Q70L (1–213) (natural protein, human, UniProt P62491 1-213, looked up)
chain: MGTRDDEYDYLFKVVLIGDSGVGKSNLLSRFTRNEFNLESKSTIGVEFATRSIQVDGKTIKAQIWDTAGLERYRAITSAYYRGAVGALLVYDIAKHLTYENVERWLKELRDHADSNIVIMLVGNKSDLRHLRAVPTDEARAFAEKNGLSFIETSALDSTNVEAAFQTILTEIYRIVSQKQMSDRRENDMSPSNNVVPIHVPPTTENKPKVQCC
notes: called full-length in the results; dominant active switch II mutant Q70L; Nucleotide removed with EDTA before complex formation; The limits 1-213 are printed for the crystal only; A SeMet form was used for phasing; also called Rab11(Q70L); full-length Q70L Rab11A; source: E. coli BL21 C41, purified (GSTrap, TEV cleavage, HiTrap Q, SEC); not shown: GST, N-terminal, cleaved
